# Reference: paper PMC9352680, “A comprehensive thermodynamic model for RNA binding by the Saccharomyces cerevisiae Pumilio protein PUF4”
# Positions count from the first letter of the chain named. In names and notes the source's numbering stands.
# T1: PUF4 RNA-binding domain (Saccharomyces cerevisiae, UniProt P25339 537-888)
# T1 sequence: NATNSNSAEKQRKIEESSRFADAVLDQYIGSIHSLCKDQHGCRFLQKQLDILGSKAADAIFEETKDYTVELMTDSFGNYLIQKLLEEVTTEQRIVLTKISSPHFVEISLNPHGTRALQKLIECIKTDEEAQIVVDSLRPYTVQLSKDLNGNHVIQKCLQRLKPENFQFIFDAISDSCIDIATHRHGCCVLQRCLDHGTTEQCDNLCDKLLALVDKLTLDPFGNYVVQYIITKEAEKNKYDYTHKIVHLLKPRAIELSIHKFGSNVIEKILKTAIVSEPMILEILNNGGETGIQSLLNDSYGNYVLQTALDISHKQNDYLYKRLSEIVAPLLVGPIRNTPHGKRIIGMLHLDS
# B1: Ic_S4_P4E.1_K4.1_C4.1_H4.1_A4.1_[T5G]_[A6C]_[T7G]_F4.1_[T8G]_[A9C]_T4.1 (ssRNA)
# RNA: UUUGACAACUGAUCGUUCUUUCUUGUAGCGGCUUCUUUCUCGAUCAGUUGUCUUU
# B2: Ic_S4_P4E.1_K4.1_C4.1_H4.1_A4.1_[T5G]_[A6C]_[T7G]_F4.1_[T8C]_[A9C]_T4.1 (ssRNA)
# RNA: B1 RNA with G31C
# B3: Ic_S4_P4E.1_K4.1_C4.1_H4.1_A4.1_[T5G]_[A6C]_[T7C]_F4.1_[T8C]_[A9C]_T4.1 (ssRNA)
# RNA: B1 RNA with G30C, G31C
# B4: Ic_S4_P4E.1_K4.1_C4.1_H4.1_A4.1_[T5G]_[A6C]_[T7C]_F4.1_[T8A]_T4.1 (ssRNA)
# RNA: B1 RNA with G30C, G31A, C32A
# B5: Ic_S4_P4E.1_K4.1_C4.1_H4.1_A4.1_[T5G]_[A6C]_[T7C]_F4.1_[T8A]_[A9T]_T4.1 (ssRNA)
# RNA: B1 RNA with G30C, G31A, C32U
# B6: Ic_S4_P4E.1_K4.1_C4.1_H4.1_A4.1_[T5G]_[A6C]_[T7C]_F4.1_[T8C]_T4.1 (ssRNA)
# RNA: B1 RNA with G30C, G31C, C32A
# B7: Ic_S4_P4E.1_K4.1_C4.1_H4.1_A4.1_[T5G]_[A6C]_[T7C]_F4.1_[T8C]_[A9G]_T4.1 (ssRNA)
# RNA: B1 RNA with G30C, G31C, C32G
# B8: Ic_S4_P3E.1_K3.1_C3.1_H3.1_A3.1_[T5C]_[A6C]_F3.1_[T7A]_[A8T]_T3.1 (ssRNA)
# RNA: UUUGACAACUGAUCGUUCUUUCUUGUACCAUUUCUUUCUCGAUCAGUUGUCUUU
# B9: Ic_S4_P3E.1_K3.1_C3.1_H3.1_A3.1_[A6C]_F3.1_[T7G]_[A8T]_T3.1 (ssRNA)
# RNA: B8 RNA with C28U, A30G
# B10: Ic_S4_P3E.1_K3.1_C3.1_H3.1_A3.1_[A6G]_F3.1_[T7C]_[A8T]_T3.1 (ssRNA)
# RNA: B8 RNA with C28U, C29G, A30C
# B11: Ic_S4_P3E.1_K3.1_C3.1_H3.1_A3.1_[T5C]_[A6C]_F3.1_[A8T]_T3.1 (ssRNA)
# RNA: B8 RNA with A30U
# B12: Ic_S4_P3E.1_K3.1_C3.1_H3.1_A3.1_[T5A]_[A6C]_F3.1_[A8C]_T3.1 (ssRNA)
# RNA: B8 RNA with C28A, A30U, U31C
# B13: Ic_S4_P3E.1_K3.1_C3.1_H3.1_A3.1_[T5C]_[A6T]_F3.1_[A8G]_T3.1 (ssRNA)
# RNA: B8 RNA with C29U, A30U, U31G
# B14: Ic_S4_P3E.1_K3.1_C3.1_H3.1_A3.1_[T5C]_F3.1_[T7C]_[A8T]_T3.1 (ssRNA)
# RNA: B8 RNA with C29A, A30C
# B15: Ic_S4_P3E.1_K3.1_C3.1_H3.1_A3.1_[A6C]_F3.1_[A8G]_T3.1 (ssRNA)
# RNA: B8 RNA with C28U, A30U, U31G
# B16: Ic_S4_P3E.1_K3.1_C3.1_H3.1_A3.1_[T5C]_[A6T]_F3.1_[T7A]_T3.1 (ssRNA)
# RNA: B8 RNA with C29U, U31A
# B17: Ic_S4_P3E.1_K3.1_C3.1_H3.1_A3.1_[T5C]_[A6T]_F3.1_[T7G]_[A8C]_T3.1 (ssRNA)
# RNA: B8 RNA with C29U, A30G, U31C
# B18: Ic_S4_P3E.1_K3.1_C3.1_H3.1_A3.1_[T5A]_[A6T]_F3.1_[T7C]_[A8T]_T3.1 (ssRNA)
# RNA: B8 RNA with C28A, C29U, A30C
# B19: Ic_S4_P3E.1_K3.1_C3.1_H3.1_A3.1_[A6C]_F3.1_[T7A]_[A8T]_T3.1 (ssRNA)
# RNA: B8 RNA with C28U
# B20: Ic_S4_P3E.1_K3.1_C3.1_H3.1_A3.1_[T5C]_F3.1_[T7G]_[A8T]_T3.1 (ssRNA)
# RNA: B8 RNA with C29A, A30G
# B21: Ic_S4_P3E.1_K3.1_C3.1_H3.1_A3.1_[T5A]_[A6C]_F3.1_[A8T]_T3.1 (ssRNA)
# RNA: B8 RNA with C28A, A30U
# B22: Ic_S4_P3E.1_K3.1_C3.1_H3.1_A3.1_[T5C]_[A6T]_F3.1_[T7G]_[A8G]_T3.1 (ssRNA)
# RNA: B8 RNA with C29U, A30G, U31G
# B23: Ic_S4_P3E.1_K3.1_C3.1_H3.1_A3.1_[T5A]_[A6T]_F3.1_T3.1 (ssRNA)
# RNA: B8 RNA with C28A, C29U, A30U, U31A
# B24: Ic_S4_P3E.1_K3.1_C3.1_H3.1_A3.1_[A6T]_F3.1_T3.1 (ssRNA)
# RNA: B8 RNA with C28U, C29U, A30U, U31A
# B25: Ic_S4_P3E.1_K3.1_C3.1_H3.1_A3.1_[T5C]_[A6T]_F3.1_[T7A]_[A8C]_T3.1 (ssRNA)
# RNA: B8 RNA with C29U, U31C
# B26: Ic_S4_P3E.1_K3.1_C3.1_H3.1_A3.1_[A6C]_F3.1_[T7G]_[A8G]_T3.1 (ssRNA)
# RNA: B8 RNA with C28U, A30G, U31G
# B27: Ic_S4_P3E.1_K3.1_C3.1_H3.1_A3.1_[T5A]_[A6T]_F3.1_[T7A]_T3.1 (ssRNA)
# RNA: B8 RNA with C28A, C29U, U31A
# B28: Ic_S4_P3E.1_K3.1_C3.1_H3.1_A3.1_[T5C]_[A6T]_F3.1_[T7C]_T3.1 (ssRNA)
# RNA: B8 RNA with C29U, A30C, U31A
# B29: Ic_S4_P3E.1_K3.1_C3.1_H3.1_A3.1_[T5A]_[A6C]_F3.1_[T7G]_[A8T]_T3.1 (ssRNA)
# RNA: B8 RNA with C28A, A30G
# B30: Ic_S4_P3E.1_K3.1_C3.1_H3.1_A3.1_[T5A]_F3.1_[A8T]_T3.1 (ssRNA)
# RNA: B8 RNA with C28A, C29A, A30U
# B31: Ic_S4_P3E.1_K3.1_C3.1_H3.1_A3.1_[A6G]_F3.1_T3.1 (ssRNA)
# RNA: B8 RNA with C28U, C29G, A30U, U31A
# B32: Ic_S4_P3E.1_K3.1_C3.1_H3.1_A3.1_[T5A]_[A6C]_F3.1_[T7A]_[A8T]_T3.1 (ssRNA)
# RNA: B8 RNA with C28A
# B33: Ic_S4_P3E.1_K3.1_C3.1_H3.1_A3.1_[T5A]_[A6C]_F3.1_[T7A]_[A8C]_T3.1 (ssRNA)
# RNA: B8 RNA with C28A, U31C
# B34: Ic_S4_P3E.1_K3.1_C3.1_H3.1_A3.1_[T5C]_[A6T]_F3.1_[A8T]_T3.1 (ssRNA)
# RNA: B8 RNA with C29U, A30U
# B35: Ic_S4_P3E.1_K3.1_C3.1_H3.1_A3.1_[T5C]_F3.1_[A8T]_T3.1 (ssRNA)
# RNA: B8 RNA with C29A, A30U
# B36: Ic_S4_P3E.1_K3.1_C3.1_H3.1_A3.1_[T5A]_[A6T]_F3.1_[T7A]_[A8C]_T3.1 (ssRNA)
# RNA: B8 RNA with C28A, C29U, U31C
# B37: Ic_S4_P3E.1_K3.1_C3.1_H3.1_A3.1_[T5C]_F3.1_[T7A]_T3.1 (ssRNA)
# RNA: B8 RNA with C29A, U31A
# B38: Ic_S4_P3E.1_K3.1_C3.1_H3.1_A3.1_F3.1_[T7G]_[A8T]_T3.1 (ssRNA)
# RNA: B8 RNA with C28U, C29A, A30G
# B39: Ic_S4_P3E.1_K3.1_C3.1_H3.1_A3.1_[A6T]_F3.1_[T7G]_[A8G]_T3.1 (ssRNA)
# RNA: B8 RNA with C28U, C29U, A30G, U31G
# B40: Ic_S4_P3E.1_K3.1_C3.1_H3.1_A3.1_[A6T]_F3.1_[T7A]_[A8G]_T3.1 (ssRNA)
# RNA: B8 RNA with C28U, C29U, U31G
# B41: Ic_S4_P3E.1_K3.1_C3.1_H3.1_A3.1_[A6C]_F3.1_[T7C]_[A8G]_T3.1 (ssRNA)
# RNA: B8 RNA with C28U, A30C, U31G
# B42: Ic_S4_P3E.1_K3.1_C3.1_H3.1_A3.1_F3.1_[A8T]_T3.1 (ssRNA)
# RNA: B8 RNA with C28U, C29A, A30U
# B43: If_S4_P3E.1_K3.1_C3.1_H3.1_A3.1_F3.1_T3.1 (ssRNA)
# RNA: B8 RNA with C28U, C29A, A30U, U31A
# B44: Ic_S4_P3E.1_K3.1_C3.1_H3.1_A3.1_[A6T]_F3.1_[A8G]_T3.1 (ssRNA)
# RNA: B8 RNA with C28U, C29U, A30U, U31G
# B45: Ic_S4_P3E.1_K3.1_C3.1_H3.1_A3.1_[T5C]_[A6T]_F3.1_[T7C]_[A8C]_T3.1 (ssRNA)
# RNA: B8 RNA with C29U, A30C, U31C
# B46: Ic_S4_P3E.1_K3.1_C3.1_H3.1_A3.1_[A6T]_F3.1_[T7A]_[A8C]_T3.1 (ssRNA)
# RNA: B8 RNA with C28U, C29U, U31C
# B47: Ic_S4_P3E.1_K3.1_C3.1_H3.1_A3.1_[T5C]_[A6T]_F3.1_[T7C]_[A8T]_T3.1 (ssRNA)
# RNA: B8 RNA with C29U, A30C
# B48: Ic_S4_P3E.1_K3.1_C3.1_H3.1_A3.1_[A6C]_F3.1_[T7A]_[A8C]_T3.1 (ssRNA)
# RNA: B8 RNA with C28U, U31C
# B49: Ic_S4_P3E.1_K3.1_C3.1_H3.1_A3.1_[T5A]_[A6T]_F3.1_[A8G]_T3.1 (ssRNA)
# RNA: B8 RNA with C28A, C29U, A30U, U31G
# B50: Ic_S4_P3E.1_K3.1_C3.1_H3.1_A3.1_[T5A]_[A6T]_F3.1_[T7A]_[A8G]_T3.1 (ssRNA)
# RNA: B8 RNA with C28A, C29U, U31G
# B51: Ic_S4_P3E.1_K3.1_C3.1_H3.1_A3.1_[A6C]_F3.1_[T7C]_[A8T]_T3.1 (ssRNA)
# RNA: B8 RNA with C28U, A30C
# B52: Ic_S4_P3E.1_K3.1_C3.1_H3.1_A3.1_[T5C]_F3.1_[T7C]_[A8C]_T3.1 (ssRNA)
# RNA: B8 RNA with C29A, A30C, U31C
# Target: T1, PUF4 RNA-binding domain
# Assay: Mg; RNA-MaP; 20 mM Na-HEPES pH 7.4, 30 mM KOAc, 0.75 mM MgCl2, 0.1% Tween-20, 5% glycerol, 0.1 mg/mL BSA, 2 mM DTT; 25 C; 0.0125-409.6 nM protein
# Conditions: tags: N-His6-TEV cleaved; C-SNAP kept, Cy3B-labelled; label: tethered on chip by stalled RNA polymerase
row,Binder,Kd [nM]
1,UCUCUUUGCAUAUUUUCUCUU (ssRNA) [Ib_S1_P4E.1_K4.1_C4.1_H4.1_[T3C]_A4.1_F4.1_[A9T]_T4.1],> 2300
2,UCUCUUUGUUUAUUGUCUCUU (ssRNA) [Ib_S1_P4E.1_K4.1_C4.1_H4.1_[A4T]_A4.1_F4.1_[A9G]_T4.1],163
3,B1,> 2300
4,B2,1050
5,B3,786
6,B4,780
7,B5,428
8,B6,997
9,B7,1440
10,B8,5.15
11,B9,178
12,B10,54.5
13,B11,13.4
14,B12,78.8
15,B13,103
16,B14,5.34
17,B15,23.4
18,B16,46.5
19,B17,442
20,B18,18.3

row,Binder,Kd [nM]
1,B19,8.55
2,B20,15.3
3,B21,21.6
4,B22,1840
5,B23,65.6
6,B24,15.3
7,B25,89.8
8,B26,1930
9,B27,126
10,B28,108
11,B29,270
12,B30,19.3
13,B31,27.4
14,B32,15.1
15,B33,144
16,B34,10.1
17,B35,2.28
18,B36,226
19,B37,41.6
20,B38,23.1

row,Binder,Kd [nM]
1,B39,2130
2,B40,944
3,B41,392
4,B42,3.03
5,B43,1.99
6,B44,46.7
7,B45,120
8,B46,123
9,B47,12.3
10,B48,80.4
11,B49,220
12,B50,1240
13,B51,27.6
14,B52,26.4
15,UCUCUUUGUCUAUUCUCUCUU (ssRNA) [Ib_S1_P4E.1_K4.1_C4.1_H4.1_[A4C]_A4.1_F4.1_[A9C]_T4.1],1920
16,UCUCUUUGUGUAUUGUCUCUU (ssRNA) [Ib_S1_P4E.1_K4.1_C4.1_H4.1_[A4G]_A4.1_F4.1_[A9G]_T4.1],18.3
17,UCUCUUUGUCUAUUGUCUCUU (ssRNA) [Ib_S1_P4E.1_K4.1_C4.1_H4.1_[A4C]_A4.1_F4.1_[A9G]_T4.1],569
18,UCUCUUUGUGUAUUCUCUCUU (ssRNA) [Ib_S1_P4E.1_K4.1_C4.1_H4.1_[A4G]_A4.1_F4.1_[A9C]_T4.1],40.4
